This is an account of results in the DeepSol protein solubility set.

This data set can be described thus: soluble on expression in E. coli; label from the status in PepcDB or PDB records.
For “MVVGGFGVGKTTLVRSVSEIRPLSTEETMTRAGETVDDISEVRGKSATTVAFDFGRISLDTRNILYLFGAPGQERFWFLWDRLFAGTLGAVVLVDTRRIDDSWYAIDRLERHGTPFIVACNDFGGPAHTPEQIREALDLDPHVPLIDCDARSRESSKRVLITLVEHLKSLYVPRAPELALLEHHHHHH”, the “soluble on expression in E. coli” value is on record as “not soluble”.

As to “MVVVEQIKSQKIHGCQILETVYKHSCGGLPPVRSALEKILAVCHGVMYKQLSAWMLHGLLLDQHEEFFIKQGPSSGNVSAQPEEDEEDLGIGGLTGKQLRELQDLRLIEEENMLAPSLKQFSLRVEILPSYIPVRVAEKILFVGESVQMFENQNVNLTRKGSILKNQEDTFAAELHRLKQQPLFSLVDFEQVVDRIRSTVAEHLWKLMVEESDLLGQLKIIKDFYLLGRGELFQAFIDTAQHMLKTPPTAVTEHDVNVAFQQSAHKVLLDDDNLLPLLHLTIEYHGKEHKADATQAREGPSRETSPREAPASGWAALGLSYKVQWPLHILFTPAVLEKNRQF”, the “soluble on expression in E. coli” value was “soluble”. The entry for “MVYNVLLSLPMMIQARWELLALLLGSGLIKQMDEVIFKEIMACASDQDLAARCSSVMLQISSNSDTCDKTAAIIFKGLTSPVAAVRSNVHRSWLCRIITLKNSQKCVETLLKLCKKSIKTTGNCSKILPISFRELPGLTCVDLQWRAILDEEPGDFSAFCYFSVLLSLKNASSQVHIQIPANDEFVLAELRNSGSLDVLKVCSKYKIYPEPLENWILEHFSPEMMEYIDFSMLKTFSAGFSQVFEEKKLEICQEKLEKFYPAEDLGRLNVHVDLSKEKLANETLEQFLQIQHESEEYPSVAGVMENLSKQNIDERLFCQKICLINDIMHEKYSILKEIRREMYTEFIFKIITRIPLRSVVDYVGATLKTEALQNPDFKNQIYQMSCQLLRLDKENARPLSLYHCFIGTCQQQDTTARISEIWAIIRGLKCDVKKRKMTEMLAKVVTSSEIQIDPSLLSDMTICSLGLHPTRFNTESTQLFVASISKLLDFRNESERIMLFQATANTPTLMDLISSILSRPSTDFSISGFQMILYFFTRFHIGSMEFYPYNHLLIITKIINFCHWSIRKFAKEPMILSISVDAICGFLPWSYLSEIALNGLEVENDPVEQLIAQNLKHNRFCVLLAEHDKQDTYLTIEDFEKLPKSEFIVEILRKKDAGNDSLNDLGQKLREITGKSMNFEEKHANLLACGILFEKSVEIMENAEKSKDLGQKWKNQYPPRGFLDNLMESFAATNSCINPEEIQNWWLEKCLGMMEIVRKKIIDFY” is “not soluble”; for “MVYSKTFRVEEKSITVSARGTIGVVFYRDFAYLPAVSLICFVPKEEFDIRFLFHALRAIKFKKQGSATGQLTVAQFKEYGIHVPSLKKQKEIAAILDPLYSFFTDLNEGLPAEIELRKKQLDYYQNFLFNWIQKQKELVEQASTN” it is “soluble”. With “MWEVIIMKTYIGKIHLKWCKNCNVPLLGRVCEVCGSKAEEVKLTPPGDPRLGFQYDMDFINKILEEEFGAKNVLNGKIILLNKIPGNEEAYEIIVDGEVKYLIYFDEDKEKWKVKLKLNGAKDLMEKGAYKKIIKIKNDVVEFLKNRKGSVLRPGIVEFTDDIEEKDDVIIVDENDRVVGVGLAVVSSEDIKNMEKGKVVKVRFFIKDNEDYKPGKIYDNLEEAFDLMVRANEGVIDNYERNAIGFIKNTYEKIKKPVMVAFSGGKDSLVTLILTLKALGKDIDVVFIDTGLEFEETLKNVEDVERHYGIKIIRLRGENFWEKVKEYGIPARDYRWCSEICKLEPLKKFIEENYEDDVLSFVGIRKYESFNRATKKRIHRNTYIKKQINALPIFHWSSLHVWIYLLREKAPYNKLYEKGFDRIGCFMCPAMEMGEMNKIKREFPKLWEKWENVLREYAEKHNLGEGWIKKGLWRWKHKRQ”, the “soluble on expression in E. coli” value is “soluble”. The entry for “MWITTTPWSKHSPNWVLADNGEKLIVPEIILGDAQGPTRNEWYIGLSSVLGFSFWSPDYDGVGTWLDAATQLNEQGGGDVITYSSGAHIVRTLLLAASQSNVHSTFTSKALGNDQTSSMTSSTTAVTVAKSGDGQQQTGEQKEEDWKDISKADLFKDDPYVLKNFGDSTTQAKMQSGGSTNSNGNGSQASLAFTKKALSLLKFLVDNKILKKDKVKEAIMNPDQYLSKRSKLDSNNQKPTKDDFIGSEFKDLYENAAKLNRFNSIWAEKDTDNAKFLITVVDSYFPVLPVPAAGLNETSPTLLKPWFQFRSAPSGNGTIRDYGFIPENK” is “soluble”. The entry for “MWKWEAENDAKGVVVIAHNILEHTGRYAYVITMLRRNGYHVIMGDLPGQGQTSRANKGQIENFQTYHESLLDWLKIANEYKIPTYVLGVGLGGLILLNLLEKVELPIEGMMLISPMLELQKNGKNRKDKLVSNIGKISKDTRFNVGVEPKDLTRNLEIVEETVNDGLMLKKATYHWYNTINETMKDTMAHIHDIQPMPTLLMYGTKDLIVDTRAIDEFKEKYQTPELYFKAWQGFYHEVHNEPERDEVMRYILTFLNNSVN” is “not soluble”; for “MWLTKLVLNPASRAARRDLANPYEMHRTLSKAVSRALEEGRERLLWRLEPARGLEPPVVLVQTLTEPDWSVLDEGYAQVFPPKPFHPALKPGQRLRFRLRANPAKRLAATGKRVALKTPAEKVAWLERRLEEGGFRLLEGERGPWVQILQDTFLEVRRKKDGEEAGKLLQVQAVLFEGRLEVVDPERALATLRRGVGPGKALGLGLLSVAP” it is “soluble”; for “MWQAIAKQISEVTQQPFSISERESVNGGEINDCYMISNGSQRYFVKINEKAELPIFETEIESLTQLDKSDHIFVPSPIHIGTTKEHSFLVLNYLPTKSMDKDAFYELGVSLANHHLWGDQLEYGFDCDNYLGNVLQVNTWHRRWDCFFAEQRIGWQLQLLKEKGMVLGDIDTLVKNSKLILHNHQPKPALLHGDLWHGNIALSVKGPISYDPASYWGDAECDLAMVELFGGIQDSFFEGYESISSISEGFETRQHLYSLYHVLNHCNMFGGEYMFHAQQLIDKLNLNELEHHHHHH” it is “not soluble”. The entry for “MWYTGTGDKGKTKVPSVGEVWKDSEIVKALGDLDELNSVLGVVSSLYPELSEVIQKLQNDIFSISSEIAGFDMNFSDEKVKGIEELITNYSKELEPLRNFVLPGGHIASSFLHLARAVCRRAERSVVTLLKESKAKEVHAKYLNRLSSLLFVLALVVNKRTNNPNVIWRGKD” is “soluble”; for “MYELNICHLYPDLLNLYGDRGNIMALKMRCVWRGINVNVSNISIGDKFDAEAYDIIFLGGGQDYEQEIIQDDLLNQKGEEIRNAVKNDKVFLAICGGYQLLGSYYKTWDGKEIHFLNALDLWTIGGKERMIGNFVFECDFLKNDHYDGKIVGFENHSGRTYLGPGVKPLGKIIKGYGNNGEDGFEGAIYKNVYCSYSHGSLLPKNPALADHLISVALKQKYKDFVSLSGIDDEFENLAHDTTIKRIMG” it is “soluble”. As to “MYETIVSSRGSSFFVSQGKTGEQVYRCQVNREQCPNTLPIDKHIDLVRKYIRAFLYRFAGMTSLNETSSRRMIFLVVPSFCVIEIIP”, the “soluble on expression in E. coli” value is “not soluble”. For “MYKAVVFDFDGTVIDTEKHLFDLINTHLKIHQVAPISLEFYKQFIGGEATELHTYLEDAIGFKNKEKIYDQYYQTSVELPVNSTIIQLMQYLKKRHIPMAITTSSYKKNIYPIFKQLGLDTYIDVVVGRENVDSVQPNPEIYLKAVQELNYNPTTCLAIEDSVNGATAAMLAGLDVVVNTNIITKDQDFSTVQCVGQDMEFEDIKNSLFKE” the value was “not soluble”; for “MYKDYPAAYQVSKGAALQVDTAFYERLRANAQQRTLVEQFEVPIRTGRAWKVKAGQVFRVTTPAGPQVGDFNVWNAHDPRERLWAARTRQLQGAHVSTHDRLWSNLPFLRPLVTITDDSLASYGIDEHGGRLHDLLGTRCDPYVKKMLTGEDFHHHCHSNLTRAVLPHGLTEFDVHDVLNIFQCTGLNHDDMYFMKACPAQKGDYLEFFAEIDLLCALSTCPGGDLSLPMWGPDAQDPLSVCRPLGVEIYNLDAALLEGWQSPERAAYNGLHGLQIAKVDWEKLEHHHHHH”, “not soluble”; for “MYKVDSPDAVDFINHQEIIETLEYARTHRNDRELIRNLIEKARLCKGLTHREAAILLECAEEDLTKEIFHLAKEIKQKFYGNRIVMFAPLYLSNYCVNGCVYCPYHLKNKTIIRKKLTQEEICREVIALQDMGHKRLALEAGEDPVRNSIDYILESIRTIYSIHHKNGAIRRVNVNIAATTVENYRKLKDAGIGTYILFQETYHKENYEQLHPTGPKSNYAYHTEAMDRAMQGGIDDVGMGVLFGLNTYRYDFVGLLMHAEHLEAVYGVGPHTISVPRICSADDINAEDFENAISDEIFQKIVAVIRISVPYTGMIISTRESQKTREKVLDLGISQISGGSRTSVGGYAEAETPEENSAQFDVSDTRTLDEVVNWLLKLGYIPSFCTACYRAGRTGDRFMSLVKSGQIANCCSPNALITLQEYLEDYASEETKARGVAMIKQEMQHIPNPKIRERALENLKQIAAGERDFRF”, “not soluble”.

With “MYKVLRKERLTPKAVLLEVQDERAKLVKPGQYALVQANEESEPIPLSFLDVKESSYTFLVEVGGRATLEIAELVEEKIQFIEAPCGSPFPVKNYGKVLLISKNWGVAPLINIGRALKEESNEIYFVHVAEDEERVFLTKEASEISEEFLLFTEDGSLGEEGNSEWALGYFIENFGKPDLIVSAGSNLDSQMINRFAEERNIPHIAMVNAHILDANGLCLACRVLVEGQEKLACIDGPWFDASKVDWDYAIQKEAFYKEEEEKALKTFLRELQRLKARGR”, the “soluble on expression in E. coli” value is given as “not soluble”. In the case of “MYNISFTPDRPLTYHLEDDQSLARLSLVPGRGGLVTEWTVQGQPILYFDRERFQDPSLSVRGGIPILFPICGNLPQDQFNHAGKSYRLKQHGFARDLPWEVIGQQTQDNARLDLRLSHNDATLEAFPFAFELVFSYQLQGHSLRIEQRIANLGDQRMPFSLGFHPYFFCREKLGITLAIPANDYLDQKTGDCHGYDGQLNLTSPELDLAFTQISQPRAHFIDPDRNLKIEVSFSELYQTLVLWTVAGKDYLCLEPLEHHHHHH”, the “soluble on expression in E. coli” value is listed as “not soluble”.

Regarding “MYNVVSFNNEGVEHMKPTSEKSKEIRKKYKAPGASDEQLANSIKVASEFEYKNSSTFGWGGVYMVDRFQSMITGRAITNNTQKLLDAQALEEEASKANLKQ”, the “soluble on expression in E. coli” value is reported as “not soluble”.

Take “MYPDHMFKYVIIGDGGVGKSNLLLRFTDELFDPIHTTTLGVEFGYKDLQIDKYKVRLRVWDTCGQENFRSIIRAYYRNALGALLVYDITCRKSFVHLEQWLSDLRQHGHPEMVIMLIGNKSDLKAVRDVTTEEGEAFAKKNGLTFMETSAKANKHVEKAFVNTAHEIYKKLKLGVIEDDDVKKKKIGIILRSRSGKEKKCC”: the “soluble on expression in E. coli” value is on record as “soluble”. The entry for “MYRSEVSKPQLENPNLVDRIIVIILPNYFYEYESVLKHITKENFGIIEKTVKHFKTEEVMEWKSADLESQDIWNLSDRLIDGPCMLLLCQRANAFIEMKEVAKYHNVIAKRMSSSDGIYYSKTTIAAYHDIIFFFPKYIDERAMLKHAKDYLSVEVWPKLSQGLARVAVERPDNPIKWLADYLHQLRQ” is “not soluble”. The entry for “MYSNVQPFINSDLTNCFQSQYTEIESLLFNLLDSPVKYTKHIGGTHHFKYSTEPILDILVGVENLHDITSLDEKRLNYVGFYRLHHKYTKKVMMAKFNNFHELKQQVRLHIIQMNTQTFESYLALDYLLSTNDDIALQFNTKKHQILQHSLTIRQYEMQKQQYFEKLCKKY” is “not soluble”.

“MYTFDTTDHKSPCCNFQWYIFRKQGESRIITCELFGVIVSLENRWDWLEFMIDDSLQLTAFRCPKRDKLGMETLLQLGDVAQVTGNWKLSNGAFLNATKIAIHNNPDVECKYWLQQIQKYKSKVCELEIPSDWIRRQQRAHNLKTDAVLSFSAQVSTAAATCWKLWKKHFNQGGKISLQRLWEVIQRENCPKMQELSSCRRNQIVQLLIHLGYLIPLSKEPETYVLLIDDILDKQVMQIFNQNIASKTLSLREVAYRLEEYFHVEEISLERVEESILRLAYKEKVEQV”: the “soluble on expression in E. coli” value was “not soluble”.
